Article PMC8943206 (2022)

Molecular target: T1, cGAS-His (human, UniProt Q8N884 1-522)
T1 chain: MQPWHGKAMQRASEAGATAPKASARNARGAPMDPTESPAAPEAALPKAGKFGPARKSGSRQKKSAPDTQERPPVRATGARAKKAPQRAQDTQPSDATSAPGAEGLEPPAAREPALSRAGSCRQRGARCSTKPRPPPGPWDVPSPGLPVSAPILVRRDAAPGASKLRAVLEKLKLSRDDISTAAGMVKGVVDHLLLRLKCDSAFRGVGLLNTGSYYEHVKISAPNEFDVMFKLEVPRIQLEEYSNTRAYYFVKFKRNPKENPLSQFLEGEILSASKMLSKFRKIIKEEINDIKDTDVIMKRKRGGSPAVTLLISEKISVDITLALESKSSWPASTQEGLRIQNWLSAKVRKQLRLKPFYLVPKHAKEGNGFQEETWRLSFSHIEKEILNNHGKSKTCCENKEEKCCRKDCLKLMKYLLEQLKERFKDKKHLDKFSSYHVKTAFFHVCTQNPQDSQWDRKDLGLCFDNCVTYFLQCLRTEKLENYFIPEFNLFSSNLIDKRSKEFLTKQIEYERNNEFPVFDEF
Assay: SPR

B1: GST-PCBP2 (natural protein)
chain: MDTGVIEGGLNVTLTIRLLMHGKEVGSIIGKKGESVKKMREESGARINISEGNCPERIITLAGPTNAIFKAFAMIIDKLEEDISSSMTNSTAASRPPVTLRLVVPASQCGSLIGKGGCKIKEIRESTGAQVQVAGDMLPNSTERAITIAGIPQSIIECVKQICVVMLETLSQSPPKGVTIPYRPKPSSSPVIFAGGQDRYSTGSDSASFPHTTPSMCLNPDLEGPPLEAYTIQGQYAIPQPDLTKLHQLAMQQSHFPMTHGNTGFSGIESSSPEVKGYWGLDASAQTTSHELTIPNDLIGCIIGRQGAKINEIRQMSGAQIKIANPVEGSTDRQVTITGSAASISLAQYLINVRLSSETGGMGSS
- Kd: 470 nM
